Columns and labels:
[1] = target: T1, Hna with a C-terminal GFP tag (Sinorhizobium meliloti); assay: FP; with ATP
T1 chain: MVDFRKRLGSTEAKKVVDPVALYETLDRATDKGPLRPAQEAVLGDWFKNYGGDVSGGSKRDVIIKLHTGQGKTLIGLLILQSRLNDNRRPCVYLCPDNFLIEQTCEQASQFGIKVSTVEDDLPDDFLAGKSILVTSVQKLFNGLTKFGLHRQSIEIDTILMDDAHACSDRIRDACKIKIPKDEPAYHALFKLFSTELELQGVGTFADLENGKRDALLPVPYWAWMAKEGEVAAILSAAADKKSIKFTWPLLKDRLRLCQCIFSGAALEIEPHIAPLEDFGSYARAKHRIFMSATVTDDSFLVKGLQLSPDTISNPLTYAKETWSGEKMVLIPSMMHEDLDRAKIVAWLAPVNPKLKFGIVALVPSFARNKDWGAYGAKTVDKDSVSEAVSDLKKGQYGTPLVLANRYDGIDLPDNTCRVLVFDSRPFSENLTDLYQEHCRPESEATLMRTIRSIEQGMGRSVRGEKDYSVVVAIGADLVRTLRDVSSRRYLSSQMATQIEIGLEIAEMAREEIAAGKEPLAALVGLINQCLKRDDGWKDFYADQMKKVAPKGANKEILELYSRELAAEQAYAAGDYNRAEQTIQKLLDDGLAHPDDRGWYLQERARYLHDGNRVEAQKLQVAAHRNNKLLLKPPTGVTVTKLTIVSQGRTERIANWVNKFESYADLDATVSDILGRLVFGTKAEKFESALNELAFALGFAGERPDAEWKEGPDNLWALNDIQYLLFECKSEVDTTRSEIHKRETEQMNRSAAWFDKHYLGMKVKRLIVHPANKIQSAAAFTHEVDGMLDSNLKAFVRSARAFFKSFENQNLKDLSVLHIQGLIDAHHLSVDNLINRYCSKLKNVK

[2] = target: T1, Hna with a C-terminal GFP tag; assay: FP; without ATP

B1: Hna (helicase-nuclease abortive infection), wild type, Sinorhizobium meliloti (enzyme)
chain: T1 chain
Kd [1]: 337 nM | Kd [2]: 4460 nM

— article PMC13381803 (2026)
